B1: C4.991: anti-ABCC4 antibody raised in rats; VH SEQ ID NO: 16, VL SEQ ID NO: 136 (antibody, V domains shown)
VH: EVKLVESGGGLVQPGRSLQVSCVASGFIFTDYYMAWVRQAPTKGLEWVAYINYDGGSTYYGDSVKGRFTISRDNAKSTLYLQMNSLRSEDMATYYCARRDYGSKFDNWGQGTLVTVSS
VL: DIVMTQSPSLLSASVGDRVTLTCKGSQNINNFLAWYQQKRGEAPKLLIYKTNSLHTGIPSRFSGSGSGTEYTLTISSLHSEDLATYYCYQYNNGYTFGAGTKLELK
B2: C4.972: anti-ABCC4 antibody raised in rats; VH SEQ ID NO: 11, VL SEQ ID NO: 132 (antibody, V domains shown)
VH: EVQLKESGPGLVQPSETLSLTCTVSGFSLTSYNVHWVRQPPGKGLEWMGVMWSGGSTDYSSALKSRLSISRDTSKNQVFLKMNSLQSEDTTTYYCARDRGGYYYDGYPHDFVYWGQGVMVTVSS
VL: EIVIIQSPALAVSLGQRATISCKTNQNVDYYGNSYIHWYQQKPGQQPKLLIYLASNLASGIPARFSGRGSGTDFTLTIDPVEADDPATYYCQQSRNLPFTFGSGTKLELK
B3: C4.953: anti-ABCC4 antibody raised in rats; VH SEQ ID NO: 6, VL SEQ ID NO: 129 (antibody, V domains shown)
VH: QVTLKESGPGILQPSQTLSLTCTFSGFSLSTYGMGVGWIRQPSGKALEWLANIWWDDDKSYNPSLKNRLTISKGTSNNQAFLKITSVDTADSATYHCARIGSGNSEFDYWGQGVMVTVSS
VL: DVVLTQSPSSLSASLGDRVTITCRASQDIGNYLTWFQQKPGKSPRRMIYGATNLAAGVPSRFSGSRSGSDYSLTISSLESEDVADYHCLQSIQYPFTFGSGTKLEIK
B4: C4.1000: anti-ABCC4 antibody raised in rats; VH SEQ ID NO: 18, VL SEQ ID NO: 138 (antibody, V domains shown)
VH: QVQLTESGPGLVQPSQTLSLTCTISGFSLTSYGVSWVRQPPGKGLEWIGAIWSGGGTNYDSALKSRLSISRDTSKSQVLLKMNSLQTEDTAMYFCASGDWFAYWGQGTLVTVSS
VL: DIQMTQSPPSLSASLGDKVTITCQASQNINKYIAWFQQKPGKAPRLLIRYTSTLESGTPSRFSGSGSGRDYSFSISTVESEDIASYYCLQYVNLYTFGAGTKLELK
B5: C4.985: anti-ABCC4 antibody raised in rats; VH SEQ ID NO: 14, VL SEQ ID NO: 134 (antibody, V domains shown)
VH: EVQLVESGGGLVQPGRSLKLSCTASGFTFNKNWMAWIRQAPGKGLEWVASITNTGGNTYYPDSVKGRFTVSRDQTISTLYLQMNSLRSEDTATYFCTRERIGSGYYVMDAWGRGASVTVSS
VL: DTVLTQSPALTVSPGERVTISCRASESVTSFMNWYQQKPGQQPKLLIYLASDLESGVPARFSGSGSGADFTLTIDPVEADDTATYYCQQSWIDPPTFGTGTKLELK
B6: C4.987: anti-ABCC4 antibody raised in rats; VH SEQ ID NO: 15, VL SEQ ID NO: 135 (antibody, V domains shown)
VH: EVQLVESGGGLVQPGRSMKLSCAASGFTFSNYYMAWVRQAPTKGLEWVASISTGGGNTHYRDSVKGRFTISRDNAKSTLYLQMDSLRSEETATYYCARGEDRYKGVFAYWGQGTLVTVSS
VL: DVQMTQSPSNLAASPGESVSINCKASKSISKYLAWYQQKPGKANKLLIYSGSTLQSGTPSRFSGSGSGTDFTLTIRNLEPEDFGLYYCQHHNEYPPTFGAGTKLELK

Target: T1, human ABCC4 (Homo sapiens, UniProt O15439)
T1 construct: expressed in transfected cells
T1 sequence (O15439 1-1325): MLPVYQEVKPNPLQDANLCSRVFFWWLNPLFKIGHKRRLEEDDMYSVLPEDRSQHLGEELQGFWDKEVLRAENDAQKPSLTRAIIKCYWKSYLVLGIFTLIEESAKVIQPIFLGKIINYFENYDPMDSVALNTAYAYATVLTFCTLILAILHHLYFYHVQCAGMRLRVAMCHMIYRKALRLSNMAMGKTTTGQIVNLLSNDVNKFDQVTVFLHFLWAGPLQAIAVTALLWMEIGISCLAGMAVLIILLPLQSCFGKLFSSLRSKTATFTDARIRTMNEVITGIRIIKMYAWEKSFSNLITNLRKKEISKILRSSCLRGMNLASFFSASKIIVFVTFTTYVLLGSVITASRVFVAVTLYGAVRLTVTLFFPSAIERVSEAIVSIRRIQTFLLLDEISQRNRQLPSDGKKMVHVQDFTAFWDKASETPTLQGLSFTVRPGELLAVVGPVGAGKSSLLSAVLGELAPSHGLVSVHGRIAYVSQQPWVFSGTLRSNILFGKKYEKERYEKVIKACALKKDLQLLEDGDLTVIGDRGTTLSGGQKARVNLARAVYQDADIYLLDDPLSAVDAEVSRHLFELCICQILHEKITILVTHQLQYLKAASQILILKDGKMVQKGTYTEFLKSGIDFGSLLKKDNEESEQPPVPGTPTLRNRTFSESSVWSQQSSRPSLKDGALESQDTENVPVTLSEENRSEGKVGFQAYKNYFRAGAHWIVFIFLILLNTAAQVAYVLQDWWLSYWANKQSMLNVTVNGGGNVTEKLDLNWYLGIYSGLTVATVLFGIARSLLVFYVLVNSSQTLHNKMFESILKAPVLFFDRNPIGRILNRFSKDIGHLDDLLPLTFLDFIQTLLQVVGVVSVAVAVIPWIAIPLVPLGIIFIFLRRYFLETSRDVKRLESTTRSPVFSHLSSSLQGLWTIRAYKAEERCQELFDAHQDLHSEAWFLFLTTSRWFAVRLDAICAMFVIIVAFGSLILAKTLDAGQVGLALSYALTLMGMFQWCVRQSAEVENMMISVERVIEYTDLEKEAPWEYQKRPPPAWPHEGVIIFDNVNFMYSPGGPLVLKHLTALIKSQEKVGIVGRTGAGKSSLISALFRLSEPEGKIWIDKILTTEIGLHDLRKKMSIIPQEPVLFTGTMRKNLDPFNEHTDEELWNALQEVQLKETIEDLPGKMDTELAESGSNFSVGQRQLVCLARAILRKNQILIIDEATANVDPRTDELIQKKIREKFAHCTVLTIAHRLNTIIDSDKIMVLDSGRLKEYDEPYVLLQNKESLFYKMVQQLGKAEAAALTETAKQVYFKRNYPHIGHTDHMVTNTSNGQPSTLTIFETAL
Assay: Flow cytometry (FACS) binding to C6 cells stably transfected to express human ABCC4 (Table 3 study)
Conditions: C6 cells stably transfected to express human ABCC4, FACS; Table 3
Procedure: (§1) Binding titration of recombinant antibodies to ABCC4 transfectants was performed by serial dilution of antibodies from about 666 nM. Diluted antibody in flow cytometry buffer was incubated with cells on ice for 30 min. After 2 washes with flow cytometry buffer, bound antibody was detected with PE-labeled F(ab′)2 fragment goat anti-human IgG (Jackson ImmunoResearch) diluted 1:200 in flow cytometry buffer and incubated with cells for 20 min on ice. After 2 washes with flow cytometry buffer fluorescence was measured on an Attune N×T flow cytometer. Data were analyzed with GraphPad Prism 8.0 software to determine EC50's.
(§2) Human embryonic kidney HEK 293T cells and murine C6 (ATCC CCL-107) were transfected with human or cynomolgus ABCC4 cDNA with C-terminal fused FLAG tag in a pMONO-hygro vector with Lipofectamine 3000 (Invitrogen #L3000001). The cells were treated with 0.2 mg/ml and 0.5 mg/ml hygromycin respectively for about 2 weeks while cultivated in DMEM and 10% FBS with 0.2 mg/ml hygromycin and 0.5 mg/ml hygromycin, respectively. The cells were washed with PBS, and stained with […] of anti-FLAG-PE after fixing and permeablization. Clones expressing ABCC4 were single-cell sorted into 200 μl DMEM with 10% FBS using a BD Aria FACS machine and cultivated in 96 well plates using standard techniques in an incubator at 37° C. and 5% CO 2. Two weeks later clones expressing high levels of ABCC4 were screened and amplified.
(§3) Antibody binding to cells was evaluated by flow cytometry. Murine C6 cells stably transfected to express human or cynomolgus ABCC4 were washed once in flow cytometry buffer (PBS+2% FBS+0.02% sodium azide), resuspended at 2×10^6 cells/mL in flow cytometry buffer, and dispensed into 96-well microtiter plates at 0.1 mL/well. Recombinant antibodies were added to cells at 5 ug/mL for initial binding confirmation, or serially diluted from 100 ug/mL in flow cytometry buffer. After incubating cells on ice for 30 min, cells were washed twice with flow cytometry buffer. Bound antibody was detected with PE-labeled F(ab′)2 fragment goat anti-human IgG (Jackson ImmunoResearch) and evaluated on an Attune N×T flow cytometer. EC50 is calculated to be the concentration of antibody that gives half maximal response.
(§4) Table 3 lists the following characteristics of the rat anti-ABCC4 antibodies tested: binding to C6 cells stably transfected to express human ABCC4 measured by FACS and binding to C6 cells stably transfected to express cynomolgus ABCC4 measured by FACS. Negative (−) is defined as maximum response (Rmax(MFI)) below background level. Positive (+) is defined as MFI>1000.

Molecule	Human ABCC4 binding
B1	+ (Positive (+) is defined as MFI>1000)
B2	+ (Positive (+) is defined as MFI>1000)
B3	+ (Positive (+) is defined as MFI>1000)
B4	+ (Positive (+) is defined as MFI>1000)
B5	+ (Positive (+) is defined as MFI>1000)
B6	+ (Positive (+) is defined as MFI>1000)

Tested on: cynomolgus ABCC4
Assay: Flow cytometry (FACS) binding to C6 cells stably transfected to express cynomolgus ABCC4 (different experiment, different C6.cC4 cell line, Table 4)
Parameters: key to Cynomolgus ABCC4 binding: Negative (−)=Rmax (MFI) below background level; Positive (+)=MFI>3× background level
Conditions: Table 4 study, stated in words
In short: (§5)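 Murine C6 cells stably expressing FLAG-tagged human or cynomolgus ABCC4 incubated 30 min on ice with antibodies, either 5 ug/mL or serially diluted from 100 ug/mL, in PBS+2% FBS+0.02% azide. Detection with PE anti-human IgG F(ab′)2 by flow cytometry; EC50 at half-maximal MFI; negative below background, positive >3× background.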

Molecule	binding to cynomolgus ABCC4 expressed on cell surface
B2	bind to both human and cynomolgus ABCC4
B3	bind to both human and cynomolgus ABCC4

Same assay, conditions: different C6.cC4 cell line, C6 cells stably transfected to express cynomolgus ABCC4, FACS; Table 4

Molecule	Cynomolgus ABCC4 binding
B1	−
B2	+ (Positive (+)=MFI>3× background level)
B3	+ (Positive (+)=MFI>3× background level)
B4	−
B5	−
B6	−

Tested on: cynomolgus ABCC4
Assay: Flow cytometry (FACS) binding to C6 cells stably transfected to express cynomolgus ABCC4 (Table 3 study)
Parameters: key to Cynomolgus ABCC4 binding: Negative (−) is defined as maximum response (Rmax(MFI)) below background level; Positive (+) is defined as MFI>1000
Conditions: C6 cells stably transfected to express cynomolgus ABCC4, FACS; Table 3
Procedure: as §1, §2, §3, §4

Molecule	Cynomolgus ABCC4 binding
B1	−
B2	−
B3	−
B4	−
B5	−
B6	−

Target: T1, human ABCC4
Assay: Flow cytometry (FACS) binding to C6 cells stably transfected to express human ABCC4 (different experiment, Table 4)
Conditions: C6 cells stably transfected to express human ABCC4, FACS; different experiment, Table 4
In short: as §5

Molecule	Human ABCC4 binding
B1	+ (Positive (+)=MFI>3× background level)
B2	+ (Positive (+)=MFI>3× background level)
B3	+ (Positive (+)=MFI>3× background level)
B4	+ (Positive (+)=MFI>3× background level)
B5	+ (Positive (+)=MFI>3× background level)
B6	+ (Positive (+)=MFI>3× background level)

Same assay, conditions: Table 4 study, stated in words

Molecule	binding to human ABCC4 expressed on cell surface
B2	bind to both human and cynomolgus ABCC4
B3	bind to both human and cynomolgus ABCC4

Source: patent publication US20240010747A1, “ANTI-MRP4 (ENCODED BY ABCC4 GENE) ANTIBODIES AND USES THEREOF” (Kenjockety Biotechnology, Inc., priority 2020, published 2024)
